Experimental data taken from PMC11102521.

Molecular target: Staphylococcal enterotoxin A (SEA) (UniProt P0A0L2 25-257)
Test: […], Tris-HCl pH 7.4, 2.7 mM KCl, 1 mM CaCl2, 0.5 mM MgCl2; 30 min at 25 °C in 100 µL, […]
Settings: protein: commercial; tags: biotinylated, immobilized on streptavidin magnetic beads

Chain of Staphylococcal enterotoxin A (SEA) (P0A0L2 25-257): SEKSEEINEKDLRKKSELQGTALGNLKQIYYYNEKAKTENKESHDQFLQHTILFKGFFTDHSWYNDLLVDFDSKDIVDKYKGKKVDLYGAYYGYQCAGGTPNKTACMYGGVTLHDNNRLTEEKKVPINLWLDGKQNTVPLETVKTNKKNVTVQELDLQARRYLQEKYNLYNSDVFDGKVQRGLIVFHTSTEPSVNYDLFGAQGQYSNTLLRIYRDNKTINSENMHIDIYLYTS

| Binder | binding result | Kd [nM] |
| --- | --- | --- |
| Apt2 (Aptamer_207452) (ssDNA) DNA: AGGCCAACTGGATAGCGAATGTGGCAGTCGGTTTTGACTTGCGCTCTTGCATCATTATTCGAATTCAGCACTACCTTTTGGCAAACGCTAATAAGGG | binds | – |
| Apt5 (Aptamer_253457) (ssDNA) DNA: AGGCCAACTGGATAGCGAATTTGCAATCAGCGTGGGTGGGTTTCTTTTGCGTGGTGTGTCGAATTCAGCACTACCTTTTGGCAAACGCTAATAAGGG | – | 13.4 ± 1.86 |
| Apt4 (Aptamer_423283) (ssDNA) DNA: AGGCCAACTGGATAGCGAATGTTAGTGGACTCGGTTTGGACGTTCTCTCTTCTCGAATGCGAATTCAGCACTACCTTTTGGCAAACGCTAATAAGGG | binds | – |
| Apt1 (Aptamer_301794) (ssDNA) DNA: AGGCCAACTGGATAGCGAATAGAACTCTGCCGTGGGGTGCAGTTTTAATTGTACGTTCTCGAATTCAGCACTACCTTTTGGCAAACGCTAATAAGGG | binds | – |
